# Laboratory results as given in patent publication US20140154255A1 (AbbVie / Abbott, published 2014).
# Tests used:
# [1] = target: T1, unlabeled human VEGF (ELISA coat) (human, UniProt P15692-4 27-191, limits assumed); assay: ELISA overnight, EC50 WT/EC50 mutant
# Method: (§1) To detect identified variants binding to antigen, ELISA plates (Nunc-Immuno MaxiSorp plates, Nalge Nunc, Rochester, N.Y.) were coated overnight at 4° C. with unlabeled human VEGF at 1 μg/mL in 0.2 M sodium carbonate-bicarbonate buffer (pH 9.4, Pierce, Rockford, Ill.). The plates were then blocked with SuperBlock Blocking Buffer (Pierce, Rockford, Ill.) for 30 min and washed with Washing Buffer (PBS containing 0.1% Tween 20). All the washing steps were performed for three times. […] The plates were washed and 100 μL of goat anti-human kappa HRP-conjugated antibody (Southern Biotech, Birmingham, Ala.) diluted at 1:1000 in ELISA buffer was added to each well. After 30 minutes of incubation, plates were washed and bound antibodies were detected by addition of TMB 1 Component HRP Microwell substrate (BioFx #TMBW-1000-01). The reaction was terminated by addition of 100 μL/well of 650 nM Stop Reagent for TMB Microwell substrate and the absorbance was measured at 650 nm using a VERSAmax microplate reader (Molecular Devices, Sunnyvale, Calif.). Data were fitted using nonlinear regression with the software […]
# [2] = target: T1, unlabeled human VEGF (ELISA coat); assay: ELISA 1 hr, EC50 WT/EC50 mutant
# Method: as §1
# [3] = target: T2, human VEGF-A residues 27-191 of Accession #AAV38412 (human, UniProt P15692 27-191); assay: BIAcore SPR, KD WT/KD mutant
# T2 construct: range 27-191
# Method: (§2) The binding kinetics and affinity of the antibodies for VEGF (human VEGF-A residues 27-191 of Accession #AAV38412) was determined by using a BIAcore T200 surface plasmon resonance system (BIAcore, GE Healthcare, Piscataway, N.J.). Coupling running buffer was HBS-EP+ running buffer (10 mM HEPES, 150 mM sodium chloride, 3 mM EDTA 0.05% P-20, pH 7.4); assay running buffer was HBS-EP+ with 300 mM sodium chloride and 0.1 mg/mL BSA (Sigma A7906). Polyclonal goat anti-human Fc (Thermo Scientific prod#31125) was first immobilized to the biosensor surface in 10 mM sodium acetate, pH 4.5 using standard BIAcore amine coupling reagents (N-ethyl-N′-dimethylamino-propylcarbodiimide, EDC; N-hydroxysuccinimide, NHS; and ethanolamine HCl, pH 8.5). For binding kinetics assay a series of cycles were performed, each cycle consisted of 1) mAb capture, 2) Ag or buffer injection, 3) dissociation phase and 4) regeneration. Briefly, anti-VEGF antibodies were captured on parallel surfaces at a low flow rate of 10 μL/min. Capture levels were kept low to minimize avidity due to the dimeric nature of VEGF. No capture of the antibody was made on the reference surface to serve for primary referencing and as a negative control. Subsequently, VEGF or buffer only was injected to all flow cells at a flow rate of 80 μL/min for three minutes to monitor association followed by a 20-minute flow of assay rinning buffer at a flow rate of 80 μL/min to monitor dissociation. […] At the end of each cycle the surface was regenerated with 10 mM glycine, pH 1.5 at a flow rate of 60 μL/min in pulses of 60 and 10 sec. Binding data were fit to the 1:1 Langmuir model with mass transport term included using Biacore T200 Evaluation Software to determine the binding constants.
# [4] = target: T2, human VEGF-A residues 27-191 of …; assay: BIAcore SPR
# Method: as §2
# T1 sequence (P15692 other isoform, or with tags, fused parts or gaps limits assumed): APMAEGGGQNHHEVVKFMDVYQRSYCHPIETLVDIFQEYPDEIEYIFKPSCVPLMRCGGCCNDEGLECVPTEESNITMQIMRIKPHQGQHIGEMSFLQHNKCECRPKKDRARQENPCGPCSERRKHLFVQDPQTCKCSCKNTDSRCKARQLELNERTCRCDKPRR
# T2 sequence (P15692 other isoform, or with tags, fused parts or gaps limits assumed): as above
Binder,ELISA o/n binding [1] [fold],ELISA 1hr binding [2] [fold],affinity improvement [3] [fold],Kd [4] [pM],koff [4] [s⁻¹],kon [4] [M⁻¹ s⁻¹]
"T30 K (anti-VEGF IgG) (antibody, V domains shown, copies: 2 + 2) VH: EVQLVESGGGLVQPGGSLRLSCAASGYTFKNYGMNWVRQAPGKGLEWVGWINTYTGEPTYAADFKRRFTFSLDTSKSTAYLQMNSLRAEDTAVYYCAKYPHYYGSSHWYFDVWGQGTLVTVSS VL: DIQMTQSPSSLSASVGDRVTITCSASQDISNYLNWYQQKPGKAPKVLIYFTSSLHSGVPSRFSGSGSGTDFTLTISSLQPEDFATYYCQQYSTVPWTFGQGTKVEIK",3.1,2.5,0.5,920,8.53e-05,92800
"H97 A (anti-VEGF IgG) (antibody, V domains shown, copies: 2 + 2) VH: EVQLVESGGGLVQPGGSLRLSCAASGYTFTNYGMNWVRQAPGKGLEWVGWINTYTGEPTYAADFKRRFTFSLDTSKSTAYLQMNSLRAEDTAVYYCAKYPAYYGSSHWYFDVWGQGTLVTVSS VL: DIQMTQSPSSLSASVGDRVTITCSASQDISNYLNWYQQKPGKAPKVLIYFTSSLHSGVPSRFSGSGSGTDFTLTISSLQPEDFATYYCQQYSTVPWTFGQGTKVEIK",3.4,4,0.2,2200,0.000451,205000
"N31 H (anti-VEGF IgG) (antibody, V domains shown, copies: 2 + 2) VH: EVQLVESGGGLVQPGGSLRLSCAASGYTFTHYGMNWVRQAPGKGLEWVGWINTYTGEPTYAADFKRRFTFSLDTSKSTAYLQMNSLRAEDTAVYYCAKYPHYYGSSHWYFDVWGQGTLVTVSS VL: DIQMTQSPSSLSASVGDRVTITCSASQDISNYLNWYQQKPGKAPKVLIYFTSSLHSGVPSRFSGSGSGTDFTLTISSLQPEDFATYYCQQYSTVPWTFGQGTKVEIK",1.9,2.2,2.5,172,3.17e-05,184000
"N31 L (anti-VEGF IgG) (antibody, V domains shown, copies: 2 + 2) VH: EVQLVESGGGLVQPGGSLRLSCAASGYTFTLYGMNWVRQAPGKGLEWVGWINTYTGEPTYAADFKRRFTFSLDTSKSTAYLQMNSLRAEDTAVYYCAKYPHYYGSSHWYFDVWGQGTLVTVSS VL: DIQMTQSPSSLSASVGDRVTITCSASQDISNYLNWYQQKPGKAPKVLIYFTSSLHSGVPSRFSGSGSGTDFTLTISSLQPEDFATYYCQQYSTVPWTFGQGTKVEIK",1.1,1.1,1.8,278,6.05e-05,218000
"N31 W (anti-VEGF IgG) (antibody, V domains shown, copies: 2 + 2) VH: EVQLVESGGGLVQPGGSLRLSCAASGYTFTWYGMNWVRQAPGKGLEWVGWINTYTGEPTYAADFKRRFTFSLDTSKSTAYLQMNSLRAEDTAVYYCAKYPHYYGSSHWYFDVWGQGTLVTVSS VL: DIQMTQSPSSLSASVGDRVTITCSASQDISNYLNWYQQKPGKAPKVLIYFTSSLHSGVPSRFSGSGSGTDFTLTISSLQPEDFATYYCQQYSTVPWTFGQGTKVEIK",1.3,2.1,3.1,164,3.42e-05,209000
"N31 Y (anti-VEGF IgG) (antibody, V domains shown, copies: 2 + 2) VH: EVQLVESGGGLVQPGGSLRLSCAASGYTFTYYGMNWVRQAPGKGLEWVGWINTYTGEPTYAADFKRRFTFSLDTSKSTAYLQMNSLRAEDTAVYYCAKYPHYYGSSHWYFDVWGQGTLVTVSS VL: DIQMTQSPSSLSASVGDRVTITCSASQDISNYLNWYQQKPGKAPKVLIYFTSSLHSGVPSRFSGSGSGTDFTLTISSLQPEDFATYYCQQYSTVPWTFGQGTKVEIK",1.5,3,6.6,77,1.77e-05,230000
"S100a A (anti-VEGF IgG) (antibody, V domains shown, copies: 2 + 2) VH: EVQLVESGGGLVQPGGSLRLSCAASGYTFTNYGMNWVRQAPGKGLEWVGWINTYTGEPTYAADFKRRFTFSLDTSKSTAYLQMNSLRAEDTAVYYCAKYPHYYGASHWYFDVWGQGTLVTVSS VL: DIQMTQSPSSLSASVGDRVTITCSASQDISNYLNWYQQKPGKAPKVLIYFTSSLHSGVPSRFSGSGSGTDFTLTISSLQPEDFATYYCQQYSTVPWTFGQGTKVEIK",2.1,2.2,1.3,337,7.68e-05,228000
"S100a G (anti-VEGF IgG) (antibody, V domains shown, copies: 2 + 2) VH: EVQLVESGGGLVQPGGSLRLSCAASGYTFTNYGMNWVRQAPGKGLEWVGWINTYTGEPTYAADFKRRFTFSLDTSKSTAYLQMNSLRAEDTAVYYCAKYPHYYGGSHWYFDVWGQGTLVTVSS VL: DIQMTQSPSSLSASVGDRVTITCSASQDISNYLNWYQQKPGKAPKVLIYFTSSLHSGVPSRFSGSGSGTDFTLTISSLQPEDFATYYCQQYSTVPWTFGQGTKVEIK",3.7,3.7,0.8,602,0.000133,221000
"S100a Q (anti-VEGF IgG) (antibody, V domains shown, copies: 2 + 2) VH: EVQLVESGGGLVQPGGSLRLSCAASGYTFTNYGMNWVRQAPGKGLEWVGWINTYTGEPTYAADFKRRFTFSLDTSKSTAYLQMNSLRAEDTAVYYCAKYPHYYGQSHWYFDVWGQGTLVTVSS VL: DIQMTQSPSSLSASVGDRVTITCSASQDISNYLNWYQQKPGKAPKVLIYFTSSLHSGVPSRFSGSGSGTDFTLTISSLQPEDFATYYCQQYSTVPWTFGQGTKVEIK",3.6,3.7,1.1,451,6.04e-05,134000
"S100a T (anti-VEGF IgG) (antibody, V domains shown, copies: 2 + 2) VH: EVQLVESGGGLVQPGGSLRLSCAASGYTFTNYGMNWVRQAPGKGLEWVGWINTYTGEPTYAADFKRRFTFSLDTSKSTAYLQMNSLRAEDTAVYYCAKYPHYYGTSHWYFDVWGQGTLVTVSS VL: DIQMTQSPSSLSASVGDRVTITCSASQDISNYLNWYQQKPGKAPKVLIYFTSSLHSGVPSRFSGSGSGTDFTLTISSLQPEDFATYYCQQYSTVPWTFGQGTKVEIK",2.7,2.3,2.2,197,4.15e-05,211000
"T28 G (anti-VEGF IgG) (antibody, V domains shown, copies: 2 + 2) VH: EVQLVESGGGLVQPGGSLRLSCAASGYGFTNYGMNWVRQAPGKGLEWVGWINTYTGEPTYAADFKRRFTFSLDTSKSTAYLQMNSLRAEDTAVYYCAKYPHYYGSSHWYFDVWGQGTLVTVSS VL: DIQMTQSPSSLSASVGDRVTITCSASQDISNYLNWYQQKPGKAPKVLIYFTSSLHSGVPSRFSGSGSGTDFTLTISSLQPEDFATYYCQQYSTVPWTFGQGTKVEIK",3.9,5.4,1.3,374,4.97e-05,133000
"T28 R (anti-VEGF IgG) (antibody, V domains shown, copies: 2 + 2) VH: EVQLVESGGGLVQPGGSLRLSCAASGYRFTNYGMNWVRQAPGKGLEWVGWINTYTGEPTYAADFKRRFTFSLDTSKSTAYLQMNSLRAEDTAVYYCAKYPHYYGSSHWYFDVWGQGTLVTVSS VL: DIQMTQSPSSLSASVGDRVTITCSASQDISNYLNWYQQKPGKAPKVLIYFTSSLHSGVPSRFSGSGSGTDFTLTISSLQPEDFATYYCQQYSTVPWTFGQGTKVEIK",1.8,1.4,0.6,675,6.44e-05,95400
"T28 Y (anti-VEGF IgG) (antibody, V domains shown, copies: 2 + 2) VH: EVQLVESGGGLVQPGGSLRLSCAASGYYFTNYGMNWVRQAPGKGLEWVGWINTYTGEPTYAADFKRRFTFSLDTSKSTAYLQMNSLRAEDTAVYYCAKYPHYYGSSHWYFDVWGQGTLVTVSS VL: DIQMTQSPSSLSASVGDRVTITCSASQDISNYLNWYQQKPGKAPKVLIYFTSSLHSGVPSRFSGSGSGTDFTLTISSLQPEDFATYYCQQYSTVPWTFGQGTKVEIK",3.4,5.2,1,520,6.32e-05,122000
